Experiments:
[1] = biological target: T1, Flag-tagged Trichoplax adhaerens Bcl-2-like protein 1 (trBcl-2L1) (Trichoplax adhaerens, UniProt A0A1B1IJP0 1-215); assay: FRET or BRET
T1 sequence (looked up): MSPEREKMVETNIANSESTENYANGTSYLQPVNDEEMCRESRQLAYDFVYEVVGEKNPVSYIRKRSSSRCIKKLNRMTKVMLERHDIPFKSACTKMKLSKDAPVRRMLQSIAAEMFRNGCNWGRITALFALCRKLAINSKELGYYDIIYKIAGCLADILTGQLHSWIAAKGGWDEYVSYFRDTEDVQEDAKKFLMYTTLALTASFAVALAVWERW

[2] = biological target: T2, Flag-tagged Trichoplax adhaerens Bcl-2-like protein 2 (trBcl-2L2) (Trichoplax adhaerens, UniProt A0A1B1IJN9 1-211); assay: FRET or BRET
T2 sequence (looked up): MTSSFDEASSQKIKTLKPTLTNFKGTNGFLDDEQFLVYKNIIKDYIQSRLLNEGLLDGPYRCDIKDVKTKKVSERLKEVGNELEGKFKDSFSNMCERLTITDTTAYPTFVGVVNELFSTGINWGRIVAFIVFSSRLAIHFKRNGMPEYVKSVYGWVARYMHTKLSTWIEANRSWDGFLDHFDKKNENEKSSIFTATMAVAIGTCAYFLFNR

B1: EGFP-tagged Trichoplax adhaerens Bax (trBax, trBcl-2L3) (natural protein, UniProt A0A1B1IJP1 1-241, looked up)
chain: MADFTYVLITRSISTIFSSSCLIAMAHVKSVTSTPTTTTTTTTQSCPRREENLKEIAAESKKLFLDFIADRSAKDGQDQGCISQLTREHNELQIEPTSPTIQVARTIRQIGDELDSDPHLNGLLHKLHVTSSTAYSTFRRVAMRIFQDGQFNWGRIITLFFFGYRLTIRVLSESPIVEMIISWIARFIYEICSFWIAESGGWDAITQYIQQADWKNKYTLGLIAVGVLVTAFVTWQRYNSS
An FRET efficacy [1] of 5.84% and an FRET efficacy [2] of 1.97% were found for B1 in this work.

B2: EGFP-tagged Trichoplax adhaerens Bak (trBak, trBcl-2L4) (natural protein, UniProt A0A1B1IJN7 1-251, looked up)
chain: MSSTITIAESLENGENNDEQEEANTSRSQFRVTRAQVIRRQLSANPAHLPVSEQEVINETSSIFRSFVVESYQAERDGGIIAEEVRSFADQVQSSSNQTITPSSPTSEIGRHLAQLGDSYSVRFQNEFRLMITHLDINPGTAYRTFAGVARRLFRDGISWRRIVTLMAFGYQIAIDVMRSGVQGFLSRICNFIVRFISGEHIANWIARQGGWRAARYEGLASPGWPAIIGVATAAAASVFGVLWLSGYFRE
An FRET efficacy [1] of 11.2% and an FRET efficacy [2] of 5.45% were found for B2 in this work.

From article doi:10.1101/816322 (bioRxiv, 2019)
